Assay results taken from IntAct's records for PubMed 17053789.

B1: Protection of telomeres protein 1 (Mus musculus), Q91WC1 (parent)
chain: MSLVSTAPYTYTPLNLLKEGTIANVYGVVKFFKPPYVSKGTDYCSVVTIVDQTNVKLTCMLFSGNYEALPIIYKVGDIVRFHRLKIQVYKNELQGINCSGFASLTFEGTVGMPVTARTSSKVFSFTPQDQKMVEALRVWASKHISASSTLVQLCDAQPMQYYDLTCQLLGKAQVDSTAFLLKVWDGTQTVLPSWRVSTQDLTFEGDLSHIERLQSLVVDILVYDNHVQVARSIEVGCFLRLYSLHTKLQPGNSETSSSESLRLEFHLHGGTSYGRGIRVLPDTSPCVDQLKKALEGANLPVTETSTGICQSENGDSSALSNSGSGAVSPYEEERCQQVSATILTNHQHLEKTPLCAILTQKAPQQYRVRAKLRSYLPRRLSQSVKLLCPKCHSVQEVPHGDSLDKILQDAATEAPDIKLKATSLYYSKVWTTEDQGGRQVAVHFVKNNGILPASSECLILIEGGRLCEVSKLSSKFHSVMPVRSGPESLELLTLSAPFLIQGKVHHYGCKQCSSLKPIQNLNSRFHKGPWTPSSVAEALGVVPLQYVFVMVFTLDDGTGVLEAYLKDSEHFFKIPASEVLTDDDLQRSLETIMDMICPPGIKVDAYPWLECLLKSYNVTIGTERRICYQIFDTTVAENVV
partner: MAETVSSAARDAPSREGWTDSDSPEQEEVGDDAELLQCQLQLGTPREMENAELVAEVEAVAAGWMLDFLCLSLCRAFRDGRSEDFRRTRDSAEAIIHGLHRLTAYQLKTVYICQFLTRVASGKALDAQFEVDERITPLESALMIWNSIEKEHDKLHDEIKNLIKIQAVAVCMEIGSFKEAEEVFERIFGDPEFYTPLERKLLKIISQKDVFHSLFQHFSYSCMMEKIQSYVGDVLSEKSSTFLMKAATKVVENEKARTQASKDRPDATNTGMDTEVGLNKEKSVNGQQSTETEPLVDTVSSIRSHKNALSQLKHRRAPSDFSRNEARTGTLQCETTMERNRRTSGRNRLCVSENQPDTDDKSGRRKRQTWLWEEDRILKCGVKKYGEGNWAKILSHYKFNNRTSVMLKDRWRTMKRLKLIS

Variants of: B1
Settings: with terf1_mouse Terf1, P70371

| effect of a mutation on the interaction | Variant |
| --- | --- |
| disrupting interaction | Y223A |
